The chains are these.
B1: CPEB3 Ribozyme (parent)
chain: UAACAGGGGGCCACAGCAGAAGCGUUCACGUCGCAGCCCCUGUCAGAUUCUGGUGAAUCUGCGAAUUCUGCUGUAUAUCUC

Results on 143 variants are retold here after the RNAGym collection of RNA variant scans (doi:10.1093/nar/gkz1192).

The data set covers variants of B1. The experiment in a line: self-cleavage, relative activity (ratio to wild type); higher = more cleavage; in vitro, sequencing. In a few lines:
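For each CPEB3 ribozyme variant, relative activity is its cleaved/total read fraction divided by the unmutated ribozyme's. Barcoded error-prone PCR libraries were transcribed by T7 RNA polymerase (5 hours, 37°C) and held in DNase I for 15 min before an EDTA stop, with cleavage occurring throughout. Template-switching reverse transcription and Illumina sequencing were used to read the RNAs. A 5-read minimum applied, and results are the mean of three batches.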
As to U76G, the self-cleavage was found to be 0.9.

Consider U76A, for which the self-cleavage came out at 1.14.

As to U76C, the self-cleavage was determined as 1.1. As for C71A A75U, the figure is 0.17; as for U78C C79U, 0.84.

Turning to U78C C79G, the self-cleavage stood at 1.18.

Consider U69G C79U, for which the self-cleavage amounted to 0.72. Consider U74A U78A, for which the self-cleavage is 1.18.

On to U74A U78C, for which the self-cleavage turned out to be 1.23. As for C71A U78G, the figure is 0.11; as for C71A U78C, 0.49. In the case of U72G U74C, the self-cleavage stood at 1.04.

As to A77G U80G, the self-cleavage came to 1.21. The same measure for A77G U80C: 1.12. For A77G U80A, the self-cleavage amounted to 1.18.

With U76A A77G, the self-cleavage came to 1.01. The same measure for U76A A77U: 1.01; for G73C U80C: 1.29; for U72A A77G: 1.02. The same measure for U72A A77U: 0.89; for U69G U80C: 0.82; for U69G U80G: 0.61. The same measure for U69G U80A: 0.88; for A75U U76C: 1.29; for U72A C79U: 0.68. For U72C C79G, the self-cleavage worked out at 1.05.

For U72C C79A, the self-cleavage was determined as 1.3. As for U72C C79U, the self-cleavage turned out to be 1.16. The same measure for G70C U76A: 0.11; for G70U A77G: 0.4. Turning to G70U U72C, the self-cleavage came to 0.42. The same measure for G70U U72G: 0.35; for U76G A77U: 0.75. In the case of G70C U72C, the self-cleavage amounted to 0.31. As for G70A U74A, the self-cleavage turned out to be 0.73. As for G70A U74C, the figure is 0.69; as for U72C U74A, 1.24.

On to U72C U74G, for which the self-cleavage stood at 1.25. The same measure for U72C U74C: 1.22; for A75G U80C: 0.65. As for A75G U80G, the figure is 1.02; as for A75G U80A, 1.08.

Consider U74C U76C, for which the self-cleavage was 1.2. As for U74C U76A, the figure is 1.3; as for U74A A75U, 1.29; as for U74A A75G, 1.31. As for U74A A75C, the figure is 1.44; as for U72C A77C, 1.07; as for U72C A77U, 1.21. The same measure for U72C A77G: 1.18.

On to U72C C81A, for which the self-cleavage was 1.05.

Take U72C C81U: the self-cleavage amounted to 1.23. The same measure for U80C C81U: 1.01. Regarding U80C C81A, the self-cleavage turned out to be 1.23. As for U76C C79G, the self-cleavage is 1.22. In the case of A75U U80A, the self-cleavage stood at 1.25.

In the case of A75U U80C, the self-cleavage turned out to be 1.1. The same measure for A75U U80G: 1.26; for C71U: 0.68. As to C71A, the self-cleavage amounted to 0.33.

With C71G, the self-cleavage stood at 0.42. The same measure for G70C U80C: 0.22; for C71A U80C: 0.63. The same measure for C71A U80A: 0.37; for G73A U80A: 1.25. As for G73A U80C, the figure is 1.36.

With A75U U78C, the self-cleavage was determined as 1.15. In the case of A75U U78A, the self-cleavage was 1.11. U76C A77G: the self-cleavage is 1.07. As for U76C A77U, the self-cleavage came out at 1.07. As for U74G A75U, the figure is 1.29; as for U74G A75G, 1.26; as for U72A G73C, 1.25. On to U72A G73A, for which the self-cleavage was determined as 1.28. As for U76A C79A, the self-cleavage is 1.2. As for U74C, the figure is 1.23; as for U74A, 1.25. As to U74G, the self-cleavage was 1.24.

With C71G A77U, the self-cleavage came out at 0.13. As for U72G U76C, the figure is 0.97; as for U72G U76A, 0.54; as for U72A A75G, 1.12. The same measure for U72A A75U: 1.22; for U72A A75C: 0.78; for U78A: 1.12. For the variant U78G, the self-cleavage worked out at 1.1. As for U78C, the self-cleavage came out at 1.02. As for U76A U80A, the figure is 1.17. The same measure for U76A U80C: 1.23; for U74C U78A: 1.29; for U74C U78G: 1.17. As for U74C U78C, the figure is 1.3; as for U72C U76A, 1.23; as for U72C U76G, 1.23. With U72C U76C, the self-cleavage came to 1.16. The same measure for C71A A77U: 0.36; for U69G A75U: 0.78.

Regarding U72A U76C, the self-cleavage worked out at 0.97. In the case of U72A U76A, the self-cleavage came out at 0.72. As for U72A U76G, the self-cleavage came out at 0.54.

U76G C81A: the self-cleavage came to 1.14. For A75C U76G, the self-cleavage is 1.25.

Regarding A77U U80G, the self-cleavage is 1.26. In the case of A77U U80A, the self-cleavage turned out to be 1.18. In the case of A77U U80C, the self-cleavage amounted to 1.18.

As to G73U U80C, the self-cleavage was 1.28.

Consider U74C C79A, for which the self-cleavage worked out at 1.31. Consider U74C C79G, for which the self-cleavage was 1.45. As for A75G C81U, the figure is 1.18; as for A75G C81A, 1.04.

As to U72A C81G, the self-cleavage worked out at 1.24. For U72A C81U, the self-cleavage came out at 1.11. As for U72A C81A, the figure is 1.26; as for U78G U80C, 0.94; as for U69C U80C, 0.52.

On to U69C U80A, for which the self-cleavage was found to be 0.79. The same measure for U69C U80G: 0.73. As to G70A U72C, the self-cleavage came to 0.42.

For the variant G70A U72A, the self-cleavage was 0.33. With U72C U78G, the self-cleavage was 1.16.

Regarding U72C U78C, the self-cleavage is 1.15. The same measure for U72C U78A: 1.2. On to U72A U80A, for which the self-cleavage is 1.11. For the variant U72A U80C, the self-cleavage turned out to be 1.29. U72A U80G: the self-cleavage came out at 0.99. With G70C U78A, the self-cleavage worked out at 0.17. As for U69G U74C, the figure is 0.38. U69G U74G: the self-cleavage amounted to 0.97.

For the variant U72A U74A, the self-cleavage is 1.34. As for U72A U74C, the figure is 1.16; as for U80A, 1.13. On to U80C, for which the self-cleavage was 1.08. The same measure for U80G: 1.18. Consider C79G, for which the self-cleavage came to 1.13.

With C79U, the self-cleavage came out at 1.17.

Turning to C79A, the self-cleavage is 1.19. For the variant U74C U80A, the self-cleavage amounted to 1.28. Consider U74C U80C, for which the self-cleavage stood at 1.24. As to U78C U80C, the self-cleavage is 0.82. As for U78C U80G, the figure is 1.15; as for U78C U80A, 1.2. On to U74C A75G, for which the self-cleavage was determined as 1.25. In the case of U74C A75U, the self-cleavage is 1.26.
